Patent US20170035903A1 (GAMAMABS PHARMA, published 2017)

Assays:
[1] = biological target: T1, human anti-Müllerian hormone type II receptor (AMHR-II) on COV434 cells (human, UniProt Q16671 18-573); assay: flow cytometry on COV434 WT cells, antibody at 10 µg/ml
T1 construct: Receptor at the surface of the COV434 AMHR-II transfected line (about 20000 receptors) or the COV434 WT line (about 2000 receptors); also called AMHR2; AMHR-II surface receptor
T1 sequence: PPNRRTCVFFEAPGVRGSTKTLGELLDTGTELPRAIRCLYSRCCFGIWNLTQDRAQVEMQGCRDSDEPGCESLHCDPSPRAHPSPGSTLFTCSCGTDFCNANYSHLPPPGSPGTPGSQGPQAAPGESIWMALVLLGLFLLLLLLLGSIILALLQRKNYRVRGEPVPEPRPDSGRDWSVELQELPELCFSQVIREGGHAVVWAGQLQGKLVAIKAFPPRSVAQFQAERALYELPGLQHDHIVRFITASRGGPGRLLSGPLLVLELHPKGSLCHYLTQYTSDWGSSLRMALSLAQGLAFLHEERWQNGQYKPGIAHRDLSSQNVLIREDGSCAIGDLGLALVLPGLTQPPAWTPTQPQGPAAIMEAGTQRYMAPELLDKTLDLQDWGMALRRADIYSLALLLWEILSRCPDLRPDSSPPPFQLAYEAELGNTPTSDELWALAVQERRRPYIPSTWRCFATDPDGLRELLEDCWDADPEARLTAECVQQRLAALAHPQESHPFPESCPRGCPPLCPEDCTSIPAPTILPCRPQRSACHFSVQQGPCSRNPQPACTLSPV
Protocol: B) FACS histogram profiles of COV434WT staining at 10 μg/ml of antibodies. C) Percentage of COV434 WT cell staining with the antibodies.
(§1) The COV434 AMHR-II transfected and the COV434 WT cell lines were maintained in DMEM/GlutaMax (Gibco) supplemented with 10% FBS, penicillin 100 U/ml and Streptomycin 100 μg/ml. Geneticin at 666 μg/ml was added for the COV434 AMHR-II transfected cell line. […] After washes, Phycoerythrin-conjugated anti-human IgG antibody (1:200, Beckman-Coulter) was added for 1 hour at room temperature. FACS analysis of the resuspended cells was done on a BD Accuri™ C6 flow cytometer (BD Bioscience).
(§2) FACS analysis with COV434-AMHR-II transfected cell line is described in FIG. 16. […] The binding capacity of these variants was also assayed on the low expressing AMHR-II COV434 WT cell line.

[2] = biological target: T1, human anti-Müllerian hormone type II …; assay: flow cytometry on COV434 AMHR-II transfected cells, Hill slope fit
Protocol: (§3) Binding was determined by FACS analysis in the range of concentrations 0.034 to 8 μg/ml. Binding data curves were analyzed used specific binding with Hill slope equation from GraphPad Prism.
as §1, §2

[3] = biological target: T2, AMHR-II-ECD-Fc (R&D System) (human, UniProt Q16671 18-149); assay: SPR (Bia3000), AMHR-II-ECD-Fc immobilised; against parental murine 12G4
T2 construct: Bought construct; also called recombinant AMHR-II; AMHR-II recombinant protein; not shown: Fc part of the bought AMHR-II-ECD-Fc (R&D System)
Protocol: (§4) Immobilization of AMHRII was performed on a Bia3000 apparatus at 25° C. in HBS-EP (HEPES 10 mM, NaCl 150 mM, EDTA 3 mM, P20 surfactant 0.005%) at […] flow rate on CM5 sensor chip using EDC/NHS (1-Ethyl-3-3-dimethylaminopropyl carbodiimidehydrochloride) activation according to the manufacturer's instructions (GEHealthcare). Briefly, carboxyl functions of CM5 sensor chip were activated with 0.4M EDC/0.1M NHS during 7 min. A solution of AMHR-II-ECD-Fc (R&D System) at 2.5 μg/ml in sodium acetate buffer was injected during 12 min. An injection of 1M ethanolamine hydrochloride was used to neutralize the activation. […] A control reference surface was prepared using the same chemical treatment of without injection of AMHRII.
(§5) Antibodies at different concentrations (from 0.5 nM to 133 nM) were injected during 180s on AMHRII-coated flowcell and the control flowcell. After a dissociation step of 400s in running buffer, sensor surfaces were regenerated using 5 μl of Glycine-HCl pH1.7. All the sensorgrams were corrected by subtracting the low signal from the control reference surface. Kinetic parameters were evaluated from the sensorgrams using a Langmuir 1:1 fitting model on the BiaEvaluation 4.2 software.

[4] = biological target: T2, AMHR-II-ECD-Fc (R&D System); assay: ELISA, 50 ng per well AMHR-II-ECD-Fc coated, HRP anti-human F(ab')2 detection
Protocol: ELISA plates (96 wells, Maxisorp, NUnc) were coated overnight at +4° C. with 50 ng per well of AMHR-II-ECD-Fc (R&D System). Coated ELISA plates were blocked with PBS-BSA 4% for 2 hours at 37° C. and washed three times with PBS-Tween20 0.05%. […] The bound anti-AMHR-II antibodies were detected by adding HRP-conjugated F(ab′)2 goat anti-human F(ab′2) fragment specific (Interchim) diluted at 1:10000 and incubated for one hour at 37° C. Revelation was done with TMB (Sigma) and the reaction was stopped by adding H2SO4 1N (v:v). Absorbances were measured at 450 nm and binding data curves were analysis using GraphPad Prism.

[5] = biological target: T2, AMHR-II-ECD-Fc (R&D System); assay: SPR (Bia3000), AMHR-II-ECD-Fc immobilised on CM5, antibody injected, Langmuir 1:1 fit
Protocol: as §4, §5

[6] = biological target: T1, human anti-Müllerian hormone type II …; assay: flow cytometry on COV434 AMHR-II transfected cells
Protocol: as §3, §1, §2

[7] = biological target: T1, human anti-Müllerian hormone type II …; assay: flow cytometry on COV434 AMHR2 transfected cells, 0.034 to 8 µg/ml
Protocol: as §3, §1, §2

B1: humanized low fucose 3C23K antibody (antibody, human IgG1, kappa, V domains shown)
VH: QVRLVQSGAEVKKPGASVKVSCKASGYTFTSYHIHWVRQAPGQRLEWMGWIYPGDDSTKYSQKFQGRVTITRDTSASTAYMELSSLRSEDTAVYYCTRGDRFAYWGQGTLVTVSS
VL: DIQMTQSPSTLSASVGDRVTITCRASSSVRYIAWYQQKPGKAPKLLTYPTSSLKSGVPSRFSGSGSGTEFTLTISSLQPDDFATYYCLQWSSYPWTFGGGTKVEIKR
notes: Humanized from murine 12G4, low fucose, prepared as in WO2011/141653A1; also called unconjugated 3C23K; 3C23K unconjugated; copies: 2 + 2
With B1 the “percent of COV434 WT cells stained” value [1] was 9.8%, the Kapparent [2] was 2.2 µg/mL and the “fold higher association rate against 12G4” value [3] was 5 fold. The “fold lower dissociation rate against 12G4” value [3] was 3 fold, the EC50 [4] was 0.018 nM and the Ka [5] was 1.81e+10 M⁻¹. It also gave a Kd [5] of 0.0553 nM, a koff [5] of 6.93e-06 s⁻¹ and a kon [5] of 125000 M⁻¹ s⁻¹.

B2: K4D-24 (antibody, V domains shown)
VH: RVRLVQSGAEVKKPGASVKVSCKASGYTFTSYHIHWVRQAPGQRLEWMGWIYPGDDSTKYSQKFQGRVTITRDTSASTAYMELSSLRSEDTAVYYCTRGDRFAYWGQGTLVTVSS
VL: DIQMTQSPSTLSASVGDRVTITCRASSSVRYIAWYQQKPGKAPKLLTYPTSSLKSGVPSRFSGSGSGTEFTLTISSLQPDDFATYYCLQWSSYPWTFGGGTKVEIK
notes: Variant of 3C23K with H-Q1R (Kabat)
In the case of B2, the “fold improvement of Kapparent against 3C23K” value [6] is reported as 20 fold, the “percent of COV434 WT cells stained” value [1] is reported as 76.8% and the Kapparent [2] is reported as 0.098 µg/mL. For the same binder, the “fold affinity improvement against 3C23K” value [7] was 22 fold.

B3: 6C59 (antibody, V domains shown)
VH: RVRLVQSGAEVKKPGASVKVSCKASGYTFTSYHIHWVRQAPGQRLEWMGWIYPGDDSTKYSQKFQGRVTITRDTSASTAYMELSSLRSEDTAVYYCTRGDRFAYWGQGTLVTVSS
VL: DIQMTQSPSTLSASVGDRVTITCRASPPVRYIAWYQQKPGKAPKLLTYPTSSLKSGVPSRFSGSGSGTEFTLTISSLQPDDFATYYCLQWSSYPWTFGGGTKVEIK
notes: Variant of 3C23K with H-Q1R, L-S27P and L-S28P (Kabat)
B3 was tested, and the “fold improvement of Kapparent against 3C23K” value [6] was 40 fold, the “percent of COV434 WT cells stained” value [1] was 82.2% and the Kapparent [2] was 0.05 µg/mL.

B4: murine 12G4 antibody (antibody, from another filing, V domains shown)
VH: QVQLQQSGPELVKPGASVRMSCKASGYTFTSYHIHWVKQRPGQGLEWIGWIYPGDDSTKYNEKFKGKTTLTADKSSSTAYMLLSSLTSEDSAIYFCTRGDRFAYWGQGTLVTVSA
VL: QIVLTQSPAIMSASLGEGITLTCSASSSVRYIHWYQQKSGTSPKLLIYSTSNLASGVPSRFSGSGSGTFHSLTISSVEAEDAADYYCLQWSSYPWTFGGGTKLEIK
B4 was tested, and the Ka [5] was 1.27e+09 M⁻¹, the Kd [5] was 0.788 nM and the koff [5] was 2.28e-05 s⁻¹. The kon [5] was 28900 M⁻¹ s⁻¹.
